Assay results from the DeepSol protein solubility set.

Test: soluble on expression in E. coli; label from the status in PepcDB or PDB records

| Sequence | soluble on expression in E. coli |
| --- | --- |
| MSQLPGLSRETRESIAMYHLRVPQTEEELERYYQFRWEMLRKPLHQPKGSERDAWDAMAHHQMVVDEQGNLVAVGRLYINADNEASIRFMAVHPDVQDKGLGTLMAMTLESVARQEGVKRVTCSAREDAVEFFAKLGFVNQGEITTPTTTPIRHFLMIKPVATLDDILHRGDWCAQLQQAWYEHIPLSEKMGVRIQQYTGQKFITTMPETGNQNPHHTLFAGSLFSLATLTGWGLIWLMLRERHLGGTIILADAHIRYSKPISGKPHAVADLGALSGDLDRLARGRKARVQMQVEIFGDETPGAVFEGTYIVLPAKPFGPYEEGGNEEELEHHHHHH | not soluble |
| MEKEKKGAKHELDLSSILQFVAPGTPLRAGMENVLRANTGGLIVVGYNDKVKEVVDGGFHINTAFSPAHLYELAKMDGAIILSDSGQKILYANTQLMPDATISSSETGMRHRTAERVAKQTGCLVIAISERRNVITLYQENMKY | not soluble |
| MSLTQMPNVHDAEPIPEAARAEIDRLLLSGDLFRYTAPQDAPVALLEREFAALLGTKYALAVSSCSAALFLSLKALDLPRDARVLIPGFTFAAVPSSVVHADCVPVLCEVGENYRIDMADFKARLDDVQAVIVSHMRGHTSDMDAILSLCAARDIPVVEDAAHSLGTLWHGEKIGTLGRVGCFSFQSYKMVNAGEGGILVTDDADLVARAVIMSGAYEHNWAKHVDGDDPALSEAFARWQNKLPLYNLRLSNLSAAVIRPQLPLLAERVRRGLENHDYVADKLNSSPVLSVPAPLVAETRAPDSIQFNLVGLSDDEVTRFAEAAAARGIKVQIFGKSADNARAFWNWQFLPGGAPELPRTRDMLMRACDVRLPVRLTRDELDLIANALLAAAAEVQGPLRVYGTEGHHHHHH | soluble |
| MNTDAIESMVRDVLSRMNSLQGEAPAAAPAAGGASRSARVSDYPLANKHPEWVKTATNKTLDDFTLENVLSNKVTAQDMRITPETLRLQASIAKDAGRDRLAMNFERAAELTAVPDDRILEIYNALRPYRSTKEELLAIADDLESRYQAKICAAFVREAATLYVERKKLKGDD | soluble |
| MRLVIHGKNIDITDGIRSYLNQKIERATSHFQNVINEVDVHLSVARNRSTAPKQTAEVTVFVNGSVIRAEESSENLYASIDLVADKIARKLRKLKEKRQDKSRAKDTNSVVEPEVVTDLVGDRTPQLPEQVVRMKYFAMPPMTIQEALEHLEMVDHDFYVFRNRDTGEINVVYERNHGGYGVIQPRPTSNNHHHNTADAAAKATAKAGPLEHHHHHH | soluble |
| MSLDASDDSLIGRITEVRAGRFAARLLSDEEGFRNEVSLGDEVQHPGQVGTYVSIRNGTFRILALVREVSGGAAGSAAGSAMQLVPLGEFNDKGAFSRGVRRYPVPGAEVHAASPQEINAVFARTRNLRFNPGYLPNHPATGVYLDPSALCSRHFAILGQSGAGKSWTVASLLQRMLASAPRAHIILLDLHGEYCWRGADGVLHSTFPPMATRAMDARELEIPYWLMSFAELVDLLIERDDPAASIQTAFLRETVFELKRRSARELGLEGVSIDAPVYFSLQEVYERFKEANEHRTDFGKTKGPLFGQFDDFLLKLGSRLHDVRYDFLLNPARRTRSESLPDLLRDFVGLGEPRCQISVIDLSPVPFDVRPTVSAQIGRLAFEFNYWNLDRREFPILLVCEEAHTYIPRERATQYEGTRKSMERIAKEGRKYGVGLAVVSQRPHELSETVLSQCGSYICLRISNPDDQAYVRKLVPEGEADLVDVLTALGRGEALILGEATPLPVRCQIFRPDEGHHHHHH | not soluble |
| MSDVSTSVQSKFARLAKKKENITYMKREQLTETDKDIAPVLDLKCKDVSAIMNKFKVLMEIQDLMFEEMRETLKNDLKAVLGGKATIPEVKNSENSSSRTEFQQIINLALQKTGMVGKIEGENSKIGDDNENLTFKLEVNELSGKLDNTNEYNSNDGKKLPQGESRSYEVMGSMEETLCNIDDRDGNRNVHLEFTERESRKDGEDEFVKEMREERKFQKLKNKEEVLKASREEKVLMDEGAVLTLAADLSSATLDISKQWSNVFNILRENDFEPKFLCEVKLAFKCDGEIKTFSDLQSLRKFASQKSSMKELLKDVLPQKEEINQGGRNYGIQEKRDKTLIDSKHRAGEITSDGLSFLFLKEVKVAKPEEMKNLETQEEEFSELEELDEEASGMEDDEDTSGLEEEEEEPSGLEEEEEEEASGLEEDEASGLEEEEEQTSEQDSTFQGHTLVDAKHEVEITSDGMETTFIDSVEDSESEEEEEGKSSETGKVKTTSLTEKKASRRQKEIPFSYLVGDSGKKKLVKHQVVHKTQEEEETAVPTSQGTGTPCLTLCLASPSKSLEMSHDEHKKHSHTNLSISTGVTKLKKTEEKKHRTLHTEELTSKEADLTEETEENLRSSVINSIREIKEEIGNLKSSHSGVLEIENSVDDLSSRMDILEERIDSLEDQIEEFSKDTMQMTKQIISKERQRDIEERSRSCNIRLIGIPEKESYENRAEDIIKEIIDENFAELKKGSSLEIVSACRVPSKIDEKRLTPRHILVKFWNSSDKEKIIRASRERREITYQGTRIRLTADLSLDTLDARSKWSNVFKVLLEKGFNPRILYPAKMAFDFRGKTKVFLSIEEFRDYVLHMPTLRELLGNNIP | soluble |
| MGLLAHFLKGPHKKTTLLLTRAGPVENPRHVLYSHPGLPLSPKGRSALLALLPLLQGFPVAHVYAADSLAEAEAARLFAEALGVPYTLLPELRERAWGAWEGLSFPEVEARFPGAVAAWTADEAGFAPPGGESVREAWERGRRAVKALLGKHRGQAILVVGNCTLNRAALSLALPLPPEEGLRLEQDYARLSVVDFYGEEGVVKALNLAVDWGHDPARGPQGPPGAS | soluble |
| QDLTVKMTDLQTGKPVGTIELSQNKYGVGFIPELADLTPGMHGFHIHQNGSCASSEKDGKVVLGGAAGGHYDPEHTNKHGFPWTDDNHKGDLPALFVSANGLATNPVLAPRLTLKELKGHAIMIHAGGDNHSDMPKALGGGGARVACGVIQ | soluble |
| MGSSHHHHHHSSGLVPRGSHMLLREVTREERKNFYTNEWKVKDIPDFIVKTLELREFGFDHSGEGPSDRKNQYTDIRDLEDYIRATAPYAVYSSVALYEKPQEMEGWLGTELVFDIDAKDLPLRRCEHEPGTVCPICLNDAKEIVRDTVIILREELGFNDIHIIYSGRGYHIRVLDEWALKLDSKSRERILSFVSASEIEDVEEFRKLLLNKRGWFVLNHGYPRAFRLRFGYFILRIKLPHLINAGIRKSIAKSILKSKEEIYEEFVRKAILAAFPQGVGIESLAKLFALSTRFSKSYFDGRVTVDLKRILRLPSTLHSKVGLIAKYVGTNERDVMRFNPFKHAVPKFRKEEVKVEYKKFLESLGT | soluble |
| MSLSARSSHLSQPVVKSVLVYRNGDPFYAGRRVVIHEKKVSSFEVFLKEVTGGVQAPFGAVRNIYTPRTGHRIRKLDQIQSGGNYVAGGQEAFKKLNYLDIGEIKKRPMEVVNTEVKPVIHSRINVSARFRKPLQEPCTIFLIANGDLINPASRLLIPRKTLNQWDHVLQMVTEKITLRSGAVHRLYTLEGKLVESGAELENGQFYVAVGRDKFKKLPYSELLFDKSTMREGHHHHHH | not soluble |
| MILIGDSGSTKTDWCIAKEGKSLGRFQTSGINPFQQDRNEIDTALRSEVLPAIGQKASSIRAVYFYGAGCTPAKAPMLNEALDSMLPHCDRIEVAGDMLGAARALCGDSEGIACILGTGSNSCLFDGREIKANVSPLGYILGDEGSGAVLGRLFIGSLLKGQMPEGLCEAFLQEYGLTSADIIESVYRKPFPNRFLAGFSPFIAQHLDIPAVYSLVQNSFDDFLVRNVLRYNRPDLPLHFIGSVAFHYREVLSSVIKKRGLTLGSVLQSPMEGLIQYHHNNHVLEHHHHHH | soluble |
| MSLGKLFGTDGIRGVTNTELQPEFALKIGKAIGTYFGKGARILIGRDVRAGGDMLLKAVESGLLSSGVLVYEAGMAPTPAFQYGVKALGYDGGVIITASHNPAEYNGIKVLSPHGIEISREDEDKIEDIYFNSRFHVVEWNGLVNDVKREDKVIETYLRGILSHVDTEKIKSKKYKVLIDPANSVGTLVTPIVARELGCKVFTINGNLDPLFSARTPEPTFESLTESAKVAKQLGVDLAVAHDGDADRAIFIDSMGRVQWGDRSGTLLSYWASVKAPNLPRRIFTAVSSSSLVEEYLKKYNIEVKWTKVGSIDIAHMLFKEKGVAGFEENGGFMYPPHQTVRDGAMSFALMLDMMASENESSAELFNRLPVYYLVKTKVRVTEKSDIKKIYDEVMNKYGNYGNTVTIDGVKIIGSDFWLLVRKSGTEPIIRILVEAKDENKSKELAKELEKLVSELVEGHHHHHH | soluble |
| MAHHHHHHMHPFYTIRYPPSKGSNESQPILVTDTAIEPLFFCIVYSIEFQCPVQTTESRTANSRSSSFPFGGRASGSGGKREANELHVCPVENTSKLLGNVTYVSCLDHNPTLLASLQTAVDAARAIPIPEDEQKVPLQLCVRLLHKQTRWLWEESRPLVEWTFKIVKTRGLSYAAVPEASSGASARNTNVEFVHASGPAQIREVLQFILKHSYEAIDLNTFSDFKSGELVFEVFVDQAR | soluble |
| MHTDTTRENPQASAPQAADSSQDLAATAPGQLRVIKRNGTVVPYTDDKITVAITKAFLAVEGGTAAASSRIHDTVRRLTEQVTATFKRRMPSGGTIHIEEIQDQVELALMRAGEQKVARDYVIYREARAAERKNAGAASDVAQPHP | not soluble |
| MGRLADTLDALSVRALSPDHRIQGQLHHRTKVDISFTSEDSYYEYKSEQAVAAQLSAVLNALIVGRNEGFCAAVREVTDLRLDDRPHWDARRRRFREERDGAPLEGQSAGGWLTVASVGLRDANATVKPGAFDELDASGFLIEVHSAIADLWKDQAMAMSYLRRTHFG | not soluble |
| MRKSRLSRYKQNKLIELFVAGVTARTATEPDSIVYTDCYRRYDVLDAGEFSHFRINHSTHFAERQNHINGIGNFWNRAKRHLRKFDGIPKEHFEPYLKECERRFNNSEIKVLVPFLEHHHHHH | not soluble |
| MRITLVDHPLVQHKLAHLRDKRTGPKDFRELAEEVAMLMAYEAMRDLELEETTVETPIAPARVKVLSGKKLALVAILRAGLVMVEGILKLVPHARVGHIGLYRDPESLNPVQYYIKLPPDIAERRAFLLDPMLATGGSASLALSLLKERGATGVKLMAILAAPEGLERIAKDHPDTEVVVAAIDERLNDHGYIVPGLGDAGDRIYGTK | soluble |
| MPLSTSDNIAAVIVTHKRVELLRASLEVVAAQTHPVKWIIVVDNGCEDAVRDLLHSVAGDRGIYLPSHTNLGGAGGFAYGFLTALALGADAIWCADDDGRPEGPQVLATLIDAAVTHQLDEVSPVVCNMDDPNRLAFPLRRGLEWRRYRSELIDPNNPSDTLLPGIASLFNGALISAAAMERIGVPDLRLFIRGDEVEYHRRLVRSGLNFGTCLTTAYLHPDGSDEFKPILGGRMHTQYPASDAKRYFTYRNRGYLMNQPGMRRLLPQEYARFAWFFLIQRRDPRGFLEWFKLHQLGRSEKFERPLEHHHHHH | not soluble |
| MSTHLLHALWLKNSGLHLWIEQVEGHKIVLSDAVPDNTFPDSVATLIRGKRFTHQVKTKLLTPKGREVTLQLPTIAFTPEQAVRVLSQIAAITPMMASSAQRATLAPDLMWMVRLYQGLEQFVRAGRLTIKLGYADHQWWPTWQLSSGLQERGWIAQMTAAAPGVLIANAGSSVAEDIADELPHWIANFLLQDLLDTPRSSEWHSFPEALMRSTPLRRGTAQLVSALNEWRDSMTSVSVQLVFIVEEPSKDREDRIDPADMLWPIRVRVRSGVDSPQPIMLSHYDSATKERLNALRREAILVAPILEKQGTDSNVTPTQLFELQREEGAGDWDCYVTTDQLVEFIGDAAARLKSRGFNVLLPRSWDQQETKAHLRLSDPAEASTQATIGLDKIVDYDWHMSVGDIELTEAEMVELVRSKSGLIHLRGEWVMADTAAIRRIGDYMKDVAAQSRKRKKQALDTAVMEAELAKANDDPRWPMLEARAEKLAEEFNNEFAEFGQVTLAELRELALKAQENEPIAYTGSPWHASLAGGSMGKDSPAPQRVSI | not soluble |
